The target in experiment [1] is T1, Bacillus anthracis protective antigen (PA) (Bacillus anthracis, UniProt P13423 30-764).
For experiment [2], the target named is T1, Bacillus anthracis protective antigen …. The experiment can be described thus: SPR (BIACore 3000), PA on CM5 chip. (In general: SPR reads the build-up and loss of mass on a sensor chip optically.)
Experiment [3] shares this target. The experiment can be described thus: SPR, purified scAb on immobilized PA ('Affinity Measurements of Purified scAb').
Experiment [4] has the same target. The experiment can be described thus: SPR (BIACore 3000).
Experiment [5] has the same target. The experiment can be described thus: SPR (BIACore 3000), PA on CM5 chip, scAb in solution.

T1 sequence (P13423 30-764 limits assumed): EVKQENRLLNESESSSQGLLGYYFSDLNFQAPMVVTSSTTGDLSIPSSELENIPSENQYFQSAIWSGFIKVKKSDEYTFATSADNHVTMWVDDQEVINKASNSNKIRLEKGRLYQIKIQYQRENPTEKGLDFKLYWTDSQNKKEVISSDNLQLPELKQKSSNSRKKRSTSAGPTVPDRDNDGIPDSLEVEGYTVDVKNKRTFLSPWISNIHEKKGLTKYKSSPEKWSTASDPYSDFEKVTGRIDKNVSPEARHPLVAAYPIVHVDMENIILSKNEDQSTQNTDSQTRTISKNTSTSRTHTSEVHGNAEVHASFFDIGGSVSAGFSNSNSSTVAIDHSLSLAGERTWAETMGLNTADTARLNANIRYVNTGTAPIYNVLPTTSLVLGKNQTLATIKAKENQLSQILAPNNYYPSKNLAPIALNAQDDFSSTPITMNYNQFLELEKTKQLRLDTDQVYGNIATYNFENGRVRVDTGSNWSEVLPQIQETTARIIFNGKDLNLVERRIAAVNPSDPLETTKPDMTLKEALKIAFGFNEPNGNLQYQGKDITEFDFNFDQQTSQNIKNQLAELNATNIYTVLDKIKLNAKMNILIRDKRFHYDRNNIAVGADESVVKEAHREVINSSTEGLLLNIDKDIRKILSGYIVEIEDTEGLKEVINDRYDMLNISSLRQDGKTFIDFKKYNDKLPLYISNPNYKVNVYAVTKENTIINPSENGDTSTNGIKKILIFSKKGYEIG

B1: NlpA-[14B7 scFv] (scFv)
scFv: CDQSSSDIQMTQTTSSLSASLGDRVTISCRASQDIRNYLNWYQQKPDGTVKLLIYYTSRLQSGVPSRFSGSGSGTDYSLTISNQEQEDIGTYFCQQGNTLPWTFGGGTKLEIKRGGGGSGGGGSGGGGSGGGGSEVQLQQSGPELVKPGASVKISCKDSGYAFSSSWMNWVKQRPGQGLEWIGRIYPGDGDTNYNGKFKGKATLTADKSSSTAYMQLSSLTSVDSAVYFCARSGLLRYAMDYWGQGTSVTVSS
As to B1, in experiment [1], the “fold higher mean fluorescence intensity compared to controls” value is ~9 fold.

B2: 14B7 scAb (scFv)
chain: DIQMTQTTSSLSASLGDRVTISCRASQDIRNYLNWYQQKPDGTVKLLIYYTSRLQSGVPSRFSGSGSGTDYSLTISNQEQEDIGTYFCQQGNTLPWTFGGGTKLEIKRGGGGSGGGGSGGGGSGGGGSEVQLQQSGPELVKPGASVKISCKDSGYAFSSSWMNWVKQRPGQGLEWIGRIYPGDGDTNYNGKFKGKATLTADKSSSTAYMQLSSLTSVDSAVYFCARSGLLRYAMDYWGQGTSVTVSS
Take B2: in experiment [2], the Kd – broadly, a measure of binding affinity in units of concentration – was found to be 4.3 nM. Moreover, in experiment [3], the koff (usually the first-order rate constant of dissociation) came to 0.003 s⁻¹ and the kon (usually the rate constant with which the complex forms) amounted to 710000 M⁻¹ s⁻¹.

B3: M18 scAb (scFv)
chain: DIQMTQTTSSLSASLGDRVTVSCRASQDIRNYLNWYQQKPDGTVKFLIYYTSRLQPGVPSRFSGSGSGTDYSLTINNLEQEDIGTYFCQQGNTPPWTFGGGTKLEIKRGGGGSDGGGSGGGGSGGGGSEVQLQQSGPELVKPGASVKISCKDSGYAFNSSWMNWVKQRPGQGLEWIGRIYPGDGDSNYNGKFEGKAILTADKSSSTAYMQLSSLTSVDSAVYFCARSGLLRYAMDYWGQGTSVTVSS
As to B3, the “fold affinity improvement compared to the parental antibody 14B7” value in experiment [4] is > 120 fold. In experiment [5], the Kd was determined as 0.035 nM and the koff stood at 4.2e-05 s⁻¹. In experiment [3], this molecule returned a kon of 1.2e+06 M⁻¹ s⁻¹.

(Values after patent US20060029947A1 (University of Texas, published 2006).)
